The values that follow come from patent publication US20080274095A1, “Biocides” (priority 2004, published 2008).

The conditions of data set [1]: Tobias et al. 1995; read-out: dissociation constant KD for LPS binding; cited from earlier work.
A further data set relates to Caco-2 Host Cells. Put plainly: Host cell toxicity assay by LDH release. Type of data set: cell-based, human. As for the experimental part:
Host cell toxicity assay was performed by measuring the release of lactate dehydrogenase (LDH) in the medium using a CYTOTOX 96 Non-Radioactive Cytotoxicity Assay kit (Promega, Madison, Wis.). Toxicity was therefore classified as non toxic 0-5% LDH release and mild toxicity 5-10% LDH release (ref).
(LDH leaks from cells whose membrane has failed.)

B1: LPS-binding protein (protein, UniProt P18428 26-481, looked up)
Lipopolysaccharide-binding …: ANPGLVARITDKGLQYAAQEGLLALQSELLRITLPDFTGDLRIPHVGRGRYEFHSLNIHSCELLHSALRPVPGQGLSLSISDSSIRVQGRWKVRKSFFKLQGSFDVSVKGISISVNLLLGSESSGRPTVTASSCSSDIADVEVDMSGDLGWLLNLFHNQIESKFQKVLESRICEMIQKSVSSDLQPYLQTLPVTTEIDSFADIDYSLVEAPRATAQMLEVMFKGEIFHRNHRSPVTLLAAVMSLPEEHNKMVYFAISDYVFNTASLVYHEEGYLNFSITDDMIPPDSNIRLTTKSFRPFVPRLARLYPNMNLELQGSVPSAPLLNFSPGNLSVDPYMEIDAFVLLPSSSKEPVFRLSVATNVSATLTFNTSKITGFLKPGKVKVELKESKVGLFNAELLEALLNYYILNTFYPKFNDKLAEGFPLPLLKRVQLYDLGLQIHKDFLFLGANVQYMRV
As a reminder, the Kd is the constant that tells how readily two partners part at equilibrium. Turning to B1, the Kd in data set [1] was 3.5 nM.

B2: Lactoferrin (protein, UniProt P02788 20-710, looked up)
Lactotransferrin: GRRRSVQWCAVSQPEATKCFQWQRNMRKVRGPPVSCIKRDSPIQCIQAIAENRADAVTLDGGFIYEAGLAPYKLRPVAAEVYGTERQPRTHYYAVAVVKKGGSFQLNELQGLKSCHTGLRRTAGWNVPIGTLRPFLNWTGPPEPIEAAVARFFSASCVPGADKGQFPNLCRLCAGTGENKCAFSSQEPYFSYSGAFKCLRDGAGDVAFIRESTVFEDLSDEAERDEYELLCPDNTRKPVDKFKDCHLARVPSHAVVARSVNGKEDAIWNLLRQAQEKFGKDKSPKFQLFGSPSGQKDLLFKDSAIGFSRVPPRIDSGLYLGSGYFTAIQNLRKSEEEVAARRARVVWCAVGEQELRKCNQWSGLSEGSVTCSSASTTEDCIALVLKGEADAMSLDGGYVYTAGKCGLVPVLAENYKSQQSSDPDPNCVDRPVEGYLAVAVVRRSDTSLTWNSVKGKKSCHTAVDRTAGWNIPMGLLFNQTGSCKFDEYFSQSCAPGSDPRSNLCALCIGDEQGENKCVPNSNERYYGYTGAFRCLAENAGDVAFVKDVTVLQNTDGNNNEAWAKDLKLADFALLCLDGKRKPVTEARSCHLAMAPNHAVVSRMDKVERLKQVLLHQQAKFGRNGSDCPDKFCLFQSETKNLLFNDNTECLARLHGKTTYEKYLGPQYVAGITNLKKCSTSPLLEACEFLRK
notes: Sigma
For B2, the results for the “% LDH release” value in the data set on Caco-2 Host Cells (10 μg/ml) and with Caco-2 Host Cells (100 μg/ml) were 5.9 ± 1.2 % and 5.8 ± 3.1%, respectively.
